Tests used:
[1] = molecular target: T1, peptide CSLGEQQYSV (SEQ ID NO: 17), Example 5
T1 chain: CSLGEQQYSV

[2] = molecular target: T2, peptide CALLPAVPSL (SEQ ID NO: 16), Example 3
T2 chain: CALLPAVPSL

[3] = molecular target: T3, peptide CRVPGVAPTL (SEQ ID NO: 18), Example 4
T3 chain: CRVPGVAPTL

B1: Endoplasmic reticulum aminopeptidase 1 (protein)
chain: MVFLPLKWSLATMSFLLSSLLALLTVSTPSWCQSTEASPKRSDGTPFPWNKIRLPEYVIPVHYDLLIHANLTTLTFWGTTKVEITASQPTSTIILHSHHLQISRATLRKGAGERLSEEPLQVLEHPRQEQIALLAPEPLLVGLPYTVVIHYAGNLSETFHGFYKSTYRTKEGELRILASTQFEPTAARMAFPCFDEPAFKASFSIKIRREPRHLAISNMPLVKSVTVAEGLIEDHFDVTVKMSTYLVAFIISDFESVSKITKSGVKVSVYAVPDKINQADYALDAAVTLLEFYEDYFSIPYPLPKQDLAAIPDFQSGAMENWGLTTYRESALLFDAEKSSASSKLGITMTVAHELAHQWFGNLVTMEWWNDLWLNEGFAKFMEFVSVSVTHPELKVGDYFFGKCFDAMEVDALNSSHPVSTPVENPAQIREMFDDVSYDKGACILNMLREYLSADAFKSGIVQYLQKHSYKNTKNEDLWDSMASICPTDGVKGMDGFCSRSQHSSSSSHWHQEGVDVKTMMNTWTLQKGFPLITITVRGRNVHMKQEHYMKGSDGAPDTGYLWHVPLTFITSKSDMVHRFLLKTKTDVLILPEEVEWIKFNVGMNGYYIVHYEDDGWDSLTGLLKGTHTAVSSNDRASLINNAFQLVSIGKLSIEKALDLSLYLKHETEIMPVFQGLNELIPMYKLMEKRDMNEVETQFKAFLIRLLRDLIDKQTWTDEGSVSERMLRSQLLLLACVHNYQPCVQRAEGYFRKWKESNGNLSLPVDVTLAVFAVGAQSTEGWDFLYSKYQFSLSSTEKSQIEFALCRTQNKEKLQWLLDESFKGDKIKTQEFPQILTLIGRNPVGYPLAWQFLRKNWNKLVQKFELGSSSIAHMVMGTTNQFSTRTRLEEVKGFFSSLKENGSQLRCVQQTIETIEENIGWMDKNFDKIRVWLQSEKLERM
formation rate (%) of the peptide obtained by trimming (SEQ ID NO: 6), 1 hr later [1]: 77.6%
formation rate (%) of the peptide obtained by trimming (SEQ ID NO: 6), 2 hr later [1]: 72.8%
formation rate (%) of the peptide obtained by trimming (SEQ ID NO: 6), 4 hr later [1]: 46%
formation rate (%) of the peptide obtained by trimming (SEQ ID NO: 6), 8 hr later [1]: 7.9%
formation rate (%) of the peptide obtained by trimming (SEQ ID NO: 5), 1 hr later [2]: 65.5%
formation rate (%) of the peptide obtained by trimming (SEQ ID NO: 5), 2 hr later [2]: 50.6%
formation rate (%) of the peptide obtained by trimming (SEQ ID NO: 5), 4 hr later [2]: 13.5%
formation rate (%) of the peptide obtained by trimming (SEQ ID NO: 5), 8 hr later [2]: 0%
formation rate (%) of the peptide obtained by trimming (SEQ ID NO: 7), 1 hr later [3]: 59.1%
formation rate (%) of the peptide obtained by trimming (SEQ ID NO: 7), 2 hr later [3]: 57.5%
formation rate (%) of the peptide obtained by trimming (SEQ ID NO: 7), 4 hr later [3]: 30.1%
formation rate (%) of the peptide obtained by trimming (SEQ ID NO: 7), 8 hr later [3]: 7.8%

From patent US20190030149
